The source of these data is the nanobody polyreactivity screen of Harvey et al. (2022).

A short description of the data set: yeast display, Sf9 membrane polyspecificity reagent, FACS + sequencing; frameworks hold sequencing errors. In outline: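 After 36–48 hours of galactose induction, yeast (Saccharomyces cerevisiae BJ5465) displaying a synthetic nanobody library were stained at 4 °C for 1 hour with 10% biotinylated, detergent-solubilized Sf9 membrane reagent. Streptavidin microbeads enriched the stained cells before FACS sorting into low and high (top ~1%) gates on anti-HA and streptavidin fluorescence. Each clone's polyreactivity label reflects its gate of origin.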
On to “QVQLVESGGGLVQAGGSLRLSSAASGRIFGFNAMGWYRPAPGKERELVAAITWGVGSTYYADSVKGRFTISRDNAKNTVYLQMNSLKPEDTAVYYCAAVSYAAVYGFDYWGQGTQVTVSS”, for which the “polyreactivity (PSR sort gate)” value is “high polyreactivity”. Next, “QVQLVESGGGLVQAGGSLRLSSAASGRIFGYNAMGWYRQAPGKERELVAVITYRGTSTYYADSVKGRFTISRDNAKNTVYLQMNSLKPEDTAVYYCAAVNGGYWRYYYWGQGTQVTVSS”: “high polyreactivity”; “QVQLVESGGGLVQAGGSLRLSSAASGRIFNSYAMGWYRQAPGKERELVAIIRSSGTTYYADSVKGRFTISRDNAKNSVYVQMNSLKPEDTAVYDCAADPYYWRQFNYDYWGHGTQVTVSS”: “high polyreactivity”. Next, “QVQLVESGGGLVQAGGSLRLSSAASGRIFNWYTMGWYRQSPGKERELVAAITSGGTTTYYADSVKGRFTISRDNAKNTVYLQMTSLKPEDTAVYYCAARRGGRRGYDYWGQGTQVTVSS”: “high polyreactivity”. The value for “QVQLVESGGGLVQAGGSLRLSSAASGRIFPYYAMGWYRQAPGKETELVATISSGGRTNYADSVKGRFTISRDNAKYTVYLQMNSLKPEDTAVYYCAADYRKSRVFYGLYYWGQGTQVTVSS” was “high polyreactivity”; that for “QVQLVESGGGLVQAGGSLRLSSAASGRIFVGYAKGWYIQAPGKERELVAGIRYSGGSTYYADSVKGRFTISRDNAKNTVYLQMNSLKPEDTAVYYCATQVWHYAGRPNYKYDYWGQGTQVTVSS” was “low polyreactivity”; that for “QVQLVESGGGLVQAGGSLRLSSAASGRIFVNYAMGSSRQAPGKERELVAAITSDGSTSYADSVNGRFTISRDNAKNTVFLEMNSLKPEDTAVYYCAKGQRDREEYDYWGQGTQVTVSS” was “low polyreactivity”. For the sequence “QVQLVESGGGLVQAGGSLRLSSAASGRTFAVYTMRWYRQAPGKEREFVARIRYSGGNTYYADSVKRRFTLSRDNAKNTVYLQMNSLKPEDTAVYSCAARSRYRVYGSRNFDYWGQGSQVTVSS”, the “polyreactivity (PSR sort gate)” value was “high polyreactivity”.

“QVQLVESGGGLVQAGGSLRLSSAASGRTFFRYAMGWYRQAPGKERELVAAITWSGGTTYYADSVKGRFTISRDNAKNTVYLQMNSLKPEDTAVYYCNGRGLWYRRVVTYGYWGQGTQVTVSS”: the “polyreactivity (PSR sort gate)” value is on record as “high polyreactivity”. Take “QVQLVESGGGLVQAGGSLRLSSAASGRTFGWNSMGWYRHAPGKERELVAAISRTGNTYYADSVKGRFTISRDNAKNTVYLQMNSLKPEDTAVYYCAKGRYYTPTYFRGVDLYDYWGQGTQVTVSS”: the “polyreactivity (PSR sort gate)” value was “low polyreactivity”.

In the case of “QVQLVESGGGLVQAGGSLRLSSAASGRTFRGYAMGWYRQAPGKERELVAAISVTGSSTNYAYSVKGRFTISRDNAKNTVYLQMNRLKPEDTAVYDCNAKRVRYSLSYDYWGQGTQVTVSS”, the “polyreactivity (PSR sort gate)” value is on record as “high polyreactivity”. Next, “QVQLVESGGGLVQAGGSLRLSSAASGRTFYYYAMGWYRQAPGKERELVAAITSRGTSTYYADSVKGRFTISRDNAKNTVYLQMNSLKPEDTAVFYCAAGFICYYGNGYDYWGQGTQVTVSS”: “high polyreactivity”; “QVQLVESGGGLVQAGGSLRLSSAASGRTLASYAIGWYRQAPGQESELVAAISKRGGGTYYADSVKGRFTISRDNAKNTVYLQMNSLKPEDTAVYYCAKGTGYKPVVTTHPMDYWGQGTQVTVSS”: “high polyreactivity”; “QVQLVESGGGLVQAGGSLRLSSAASGRTLFDNAMGWYRQAPGKEREWVAAIRSDGNTNYADSVKGRFTISRDNAKNTVYLQMNSLKPEDTAVYYCNARSYVGSSRDNYWGQGTQVTVSS”: “low polyreactivity”. The value for “QVQLVESGGGLVQAGGSLRLSSAASGRTLRGYAMGWYRQAPGKERELVAAITWSGGSTYYADSVKGRFTISRDNAKNTVYLQMNSLKPEDTAVYYCNARSYPDLYDYWGQGTQVTVSS” was “low polyreactivity”; that for “QVQLVESGGGLVQAGGSLRLSSAASGSIFGRYVMGWYRQAPGKERELVATISSGGSTYYADSVKGRFTISRDNAKNTVYLQMNSLKPEVTAVYYCNADYGYEYDYWGQGTQVTVSS” was “low polyreactivity”; that for “QVQLVESGGGLVQAGGSLRLSSAASGSIFLLYAKGWDRQAPGKERELVAAISRSGDSTHYADSVKGRFTISRDNAKNTVYLQMNSLQPEDTAVYYCAADGYDPYGGLYAYWGHGTQVTVSS” was “low polyreactivity”. The value for “QVQLVESGGGLVQAGGSLRLSSAASGSIFPLYAMGWYRQAPGKERELVATINRRTGSTYADSVKGRFTISRDNAKNTVYLQMKSLKPEYTAVYYCNAADNYVLFYKTRIYNYWGQGTQVTVSS” was “high polyreactivity”. Consider “QVQLVESGGGLVQAGGSLRLSSAASGSIFPRYVMGCYRQAPGKERELVPAISRGGSTNYADSVKGRFTISRDNAKNTVYLQMNSLKPEDTAVYYCDAVLYTRYNYWGQGTQVTVSS”, for which the “polyreactivity (PSR sort gate)” value is recorded as “high polyreactivity”. “QVQLVESGGGLVQAGGSLRLSSAASGSIFSAYAMGWYRQAPGKERELVATISRSGASTYYADSVKGRFTISRDNAKNTVYLQMNSLKPEDTAVYYCAARYYSPAYRLGGVDYWGQGTQVTVSS”: the “polyreactivity (PSR sort gate)” value is “high polyreactivity”.

Take “QVQLVESGGGLVQAGGSLRLSSAASGSIFWPNTMGWYRPAPGKERELVAGISFGGGSTYYADSVKGRFTISRDNAKNTVYLQMNRLKPEDTAVYYCNGDDPGYAGPWYWFKYDYWGQGTQVTVSS”: the “polyreactivity (PSR sort gate)” value is recorded as “low polyreactivity”. The value for “QVQLVESGGGLVQAGGSLRLSSAASGSIFYNNAMGWYRQAPGKERELVAAISGSGDSTYYADSVKGRFTISRDNAKNTVYLQMNSLIPDDTAVYYCNATPYVLWWSDMDYWGQGTQVTVSS” was “high polyreactivity”; that for “QVQLVESGGGLVQAGGSLRLSSAASGSILGDYGMGWYRQAPGKERELVAAITWNGDSTYYADSVKGRFTISRDNAKNTVYLQMNSLKPEDTAVYYCAADLQDYKYYPWYGYWGQGTQVTVSS” was “low polyreactivity”; that for “QVQLVESGGGLVQAGGSLRLSSAASGSISADYVMGWYRQAPGKERELVAAISVSAGTTYYADSVKGRFTISRDNAKNTVYLQMNSLKPEDTAVYYCAATDSYYWLYYYGYSPGNDYWGQGTQVTVSS” was “low polyreactivity”. Next, “QVQLVESGGGLVQAGGSLRLSSAASGSPFIYYVMGWYRQAPGKERELVAAITRSGSTNYADSVKGRFTISRDNAKNTVYLQMNSLKPEDTAVYYCAAERALSRYGYWGHGTQVTVSS”: “low polyreactivity”; “QVQLVESGGGLVQAGGSLRLSSAASGSTFAFYDMGWYRQAPGKERELVAGISSSGSTYYADSVKGRFTISRDNAKNTVYLQMNSLKPEDTAVYYCAAVLSVRVYGYDYWGQGTQVTVSS”: “low polyreactivity”. Turning to “QVQLVESGGGLVQAGGSLRLSSAASGSTFDSNAMGWYRQAPGKERELVAAIDYSSDSTYYADSVKGRFTISRDNAKNTVYLQMNSLKPEDTAVYYCAAVAYIFCARYGYNYWGQGTQVTVSS”, the “polyreactivity (PSR sort gate)” value was “low polyreactivity”. The value for “QVQLVESGGGLVQAGGSLRLSSAASGSTFGSYTMGWYRQAPGKERELVAAINWSGGNTYYADSVKGRFTISRDNAKNTVYLQMNSLKPEDPAVYYCAAAFYIYGVEGDYWGQGTQVTVSS” was “low polyreactivity”; that for “QVQLVESGGGLVQAGGSLRLSSAASGSTFISYAMGRYSQAPGQDRELVAAISSGGGRTSYADSVKGRLTISRDHAKNTVYLQMNSLKPEDTAVYYCNKTPHFPRPGFNYWGQGTHVTVSS” was “low polyreactivity”. Next, “QVQLVESGGGLVQAGGSLRLSSAASGSTFTAYAMGWYRQAPGTERELVAAISRSRGRTYYADSVKGRFTISRDNAKYTVYLEMISLKPEDTAVLYCNARGGSDGDYWGQGTQVTVSS”: “high polyreactivity”; “QVQLVESGGGLVQAGGSLRLSSAASGSTFVYNYMGWYRQAPGKERELVAAIDSGGSTYYADSVKGRFTISRDNAKNTVYLQMNSLKPEDTAVYYCAASSDSYFGYHYYYWGQGTQVTVSS”: “low polyreactivity”; “QVQLVESGGGLVQAGGSLRLSSAASGSTFYKYAMGWNRQTPGKERELVAPITGNSGSTYYADSVKGRFTISRDNAKNTVYLQMNSLKPEDTAVYYCAAARPRVWAFNYWGQGTQVTVSS”: “low polyreactivity”.

As to “QVQLVESGGGLVQAGGSLRLSSAASGSTFYYNTMGWSRQAPGKERELVAAISSSGGTTYYADSVKGRFTISRDNAKNTVYLQMNSLKPEDTAVYYCNVATIWYSYARGYGYWGQGTQVTVSS”, the “polyreactivity (PSR sort gate)” value was “high polyreactivity”.

For “QVQLVESGGGLVQAGGSLRLSSAASGSTIGYYAMRWYRQAPGKERELVAAISWSGGSTYYADSVKGRFTISRDNAKNTVYLQMNSLKPEDTAVYYCAADTYPDYYLVEYYYWGQGTQVTVSS”, the “polyreactivity (PSR sort gate)” value was “low polyreactivity”. The value for “QVQLVESGGGLVQAGGSLRLSSAASGSTLRRYAMGWYRQAPGKERELVAAISGSGDSTYYADSVKGRFTISRDNAKNTVYLQMNSLKPEDTAVYYCNAVYAFNGYDYWGQGTQVTVSS” was “low polyreactivity”. Consider “QVQLVESGGGLVQAGGSLRLSSAASGSTSYYYVMGWYRQAPGKERELVAAISNGDTTNYADSVKGRITITRDNEKNTVYLQMNSLKPEVTAVDYCAAVYYRSFHDYGYWGQGTQVTVSS”, for which the “polyreactivity (PSR sort gate)” value is given as “low polyreactivity”.

With “QVQLVESGGGLVQAGGSLRLSSAASGTIFRSYSMGWSRQAPGKERELVASITWRGGRTYYADSVKGRFTISRDNAKNTVYLQMNSLKPEDTAVDFCAVLWTPAGGYYFRYDYWGQGTQVTVSS”, the “polyreactivity (PSR sort gate)” value is “low polyreactivity”. Next, “QVQLVESGGGLVQAGGSLRLSSAASGYIFDWNAMGWYRQAPGKERELVAAISSGGRTNYADSVKGRFTISRDNAKNTVYLQMNSLKPEDTAVYYCAAVYTDPYVEYDYWGQGTQVTVSS”: “low polyreactivity”; “QVQLVESGGGLVQAGGSLRLSSAAYGRTFRPYAMGWYRQAPGKERELVAAIDSSGTSTYYADSVKGRFTISLDNAKNTVYLQMNSLKPEDTAVYYCAAGSDPTGRRYDYWGQGTQVTVSS”: “low polyreactivity”; “QVQLVESGGGLVQAGGSLRLSSAGSGSPFRSNAMGWYRQAPGKERELVAAISQRGGSTYYADSVKGRFTISRDNAKNPVYLQMNSLKAVDTAVYYCAKVSKRVGFPTAMNYWGQGTQVTVSS”: “high polyreactivity”.

With “QVQLVESGGGLVQAGGSLRLSSASSGFIFRGNAMVWSRQAPGKERELVAAISWSGGNTYYADSVKGRFTISRDYAKNTVYLQMNSMIPEDTAVYYCNGVKAYYRWFLPRYQYNFWGQGTQVTVSS”, the “polyreactivity (PSR sort gate)” value is reported as “high polyreactivity”.
